Article PMC7331476

Biological target: recombinant PD-L1, His tagged (human, UniProt Q9NZQ7 19-239)
Test: pull-down

Chain of recombinant PD-L1, His tagged (Q9NZQ7 19-239): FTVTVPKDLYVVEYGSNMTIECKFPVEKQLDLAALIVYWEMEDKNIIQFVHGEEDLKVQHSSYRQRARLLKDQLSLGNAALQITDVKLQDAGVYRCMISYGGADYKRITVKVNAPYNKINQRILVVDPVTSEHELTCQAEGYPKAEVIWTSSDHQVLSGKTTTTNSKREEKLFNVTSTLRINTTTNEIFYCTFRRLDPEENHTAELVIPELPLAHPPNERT

B1: XQ-P3 biotinylated (ssDNA)
DNA: ACCGACCGTGCTGGACTCATCTCGCTTTTTTCACGGTCCACACTACTATGAGCGAGCCTGGCG
modifications: biotin
binding result: binds
